In patent publication US20080226632 (published 2008):

B1: PAR34 (antibody, V domains shown)
VH: EIQLQQSGPELVKPGASVKVSCKASGYAFTNYNMYWVKQSHGKSLEWIGYIDPYYGDPGYSQKFKGKATLTVDKSSSTAYMHLNSLTSEDSAVYYCARRGNFPYYFDYWGQGTTLTVSS
VL: DIKMTQSPSSMYASLGERVTITCKASQDINSYLSWFQQKPGKSPKTLIYRANRLVDGVPSRFSGSGSGQDYSLTISSLEYEDMGIYYCLQYDEFPYTFGGGTKLEIK
B2: PAR80 (antibody, V domains shown)
VH: EVQLQQSGAELVRSGASVKLSCTASGFNIKDYYIHWVKQRPEQGLEWIGCIDPENGDTEYAPNFQGRATMTADTSSNTAYLQLSSLTSEDTAVYYCYGGTITFAYWGQGTLVTVSA
VL: QAVVTQESALTTSPGETVTLTCRSSTGAVTTSNSANWVQEKPDHLFTGLIGGTINRVPGVPARFSGSLIGDKAALTITGAQTEDEAIYFCALWYSNHWVFGGGTKLTVLG

Columns and labels:
[1] = biological target: EGF (human, UniProt P01133)
[2] = biological target: T1, HB-EGF (human, UniProt Q99075)
T1 chain: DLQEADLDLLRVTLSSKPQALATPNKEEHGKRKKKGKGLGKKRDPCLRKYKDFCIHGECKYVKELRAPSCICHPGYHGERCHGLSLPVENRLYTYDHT

Chain of EGF (P01133 971-1023): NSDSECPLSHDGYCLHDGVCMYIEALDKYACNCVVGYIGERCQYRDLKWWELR

Row | Binder | binding result [1] | binding result [2]
1 | B1 | no binding | no binding
2 | B2 | no binding | no binding
